Among the data in article PMC7910549 are percent of the isolated CSB molecules associated (iBAQ) values, retold here.

For this test, the target named is GFP-tagged CSB (UniProt Q03468). The experiment in a line: affinity purification with mass spectrometry; label-free quantification and iBAQ; GFP-CSB pulled down with GFP Trap beads from U2OS CSB-KO cells; untreated against 20 J/m^2 UV-C with 1 h recovery.
UniProt Q03468, sequence (Q03468 whole entry): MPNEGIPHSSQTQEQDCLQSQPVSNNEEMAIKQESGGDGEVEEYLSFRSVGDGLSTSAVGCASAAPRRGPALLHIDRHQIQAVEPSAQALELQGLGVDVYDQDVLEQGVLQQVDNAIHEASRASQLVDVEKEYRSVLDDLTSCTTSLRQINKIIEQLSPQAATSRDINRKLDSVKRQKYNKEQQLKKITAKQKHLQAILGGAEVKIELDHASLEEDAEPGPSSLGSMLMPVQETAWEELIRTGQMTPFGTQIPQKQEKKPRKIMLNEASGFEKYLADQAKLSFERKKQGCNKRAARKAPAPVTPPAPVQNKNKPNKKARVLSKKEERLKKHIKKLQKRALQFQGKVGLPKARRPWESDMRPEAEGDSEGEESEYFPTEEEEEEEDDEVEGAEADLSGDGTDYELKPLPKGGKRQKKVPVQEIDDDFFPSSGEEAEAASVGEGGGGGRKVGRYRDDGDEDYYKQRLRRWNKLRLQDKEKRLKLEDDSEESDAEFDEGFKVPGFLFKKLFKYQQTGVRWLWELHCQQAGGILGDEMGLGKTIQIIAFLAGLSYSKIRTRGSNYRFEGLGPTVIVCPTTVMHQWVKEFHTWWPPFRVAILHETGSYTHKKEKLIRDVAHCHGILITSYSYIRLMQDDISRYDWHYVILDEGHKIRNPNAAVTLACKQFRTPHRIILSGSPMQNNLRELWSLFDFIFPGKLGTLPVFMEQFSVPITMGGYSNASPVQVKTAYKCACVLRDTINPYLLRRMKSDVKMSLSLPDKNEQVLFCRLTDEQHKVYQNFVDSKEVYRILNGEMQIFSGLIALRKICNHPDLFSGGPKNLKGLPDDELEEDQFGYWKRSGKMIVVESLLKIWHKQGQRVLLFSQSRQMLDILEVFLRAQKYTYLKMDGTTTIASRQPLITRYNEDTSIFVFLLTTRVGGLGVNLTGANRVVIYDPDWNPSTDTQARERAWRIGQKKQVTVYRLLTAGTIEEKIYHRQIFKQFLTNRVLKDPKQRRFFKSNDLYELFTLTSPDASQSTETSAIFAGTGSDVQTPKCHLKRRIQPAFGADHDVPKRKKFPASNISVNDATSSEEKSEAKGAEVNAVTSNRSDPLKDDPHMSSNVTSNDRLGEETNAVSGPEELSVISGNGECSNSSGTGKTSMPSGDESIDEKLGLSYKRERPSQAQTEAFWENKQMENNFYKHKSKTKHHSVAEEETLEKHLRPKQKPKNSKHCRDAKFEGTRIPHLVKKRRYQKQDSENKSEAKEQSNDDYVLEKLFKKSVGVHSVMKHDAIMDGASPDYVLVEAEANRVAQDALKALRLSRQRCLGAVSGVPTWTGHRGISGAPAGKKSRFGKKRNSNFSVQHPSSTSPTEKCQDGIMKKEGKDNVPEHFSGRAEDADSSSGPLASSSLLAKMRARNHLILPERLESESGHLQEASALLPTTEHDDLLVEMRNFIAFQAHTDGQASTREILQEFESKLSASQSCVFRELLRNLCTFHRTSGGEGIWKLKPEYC

Regarding “RNA polymerase II (RNAPII), endogenous (from UniProt P24928 1-1970) (complex)”, the percent of the isolated CSB molecules associated (iBAQ) is above 60%.
